Assay [1] addresses T1, human IL-6 (human, UniProt P05231 30-212). As to the kind of experiment: cell-based or functional assay.
A further assay addresses hyper IL-6. As to the kind of experiment: cell-based or functional assay.
For assay [2], the target named is T2, IL-6R on HEK-Blue IL6 reporter cells (UniProt P08887 20-468, limits assumed).
T2 sequence (looked up): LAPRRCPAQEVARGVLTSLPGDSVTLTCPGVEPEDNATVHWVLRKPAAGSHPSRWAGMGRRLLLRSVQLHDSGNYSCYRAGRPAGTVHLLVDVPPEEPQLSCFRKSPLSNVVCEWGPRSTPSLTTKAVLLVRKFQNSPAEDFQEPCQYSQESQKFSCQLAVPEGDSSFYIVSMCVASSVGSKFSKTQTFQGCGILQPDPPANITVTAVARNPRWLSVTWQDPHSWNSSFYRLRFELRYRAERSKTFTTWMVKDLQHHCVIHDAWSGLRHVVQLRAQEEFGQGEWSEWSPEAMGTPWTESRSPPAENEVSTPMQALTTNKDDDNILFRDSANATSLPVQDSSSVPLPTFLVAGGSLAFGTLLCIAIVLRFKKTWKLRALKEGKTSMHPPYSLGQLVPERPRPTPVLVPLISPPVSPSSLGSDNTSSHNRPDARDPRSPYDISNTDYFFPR
As to the kind of experiment: cell-based or functional assay.

For assay [3], the target named is T1, human IL-6. Description: yeast Fab display; biotinylated IL-6 remaining after overnight competition with 2 uM IL-6.
Assay [4] concerns the target T1, human IL-6. Description: yeast system; format in the assay not stated.
Assay [5] addresses T1, human IL-6. Description: ELISA on plates coated with human IL-6, hybridoma supernatants. A general note: ELISA stands for enzyme-linked immunosorbent assay.

Where only a bound is given, the exact number is not on record here.

B1: EBI-030 IgG2 (antibody)
heavy: QVQLVQSGAEVKKPGSSVKVSCKASGYVLPNYLIEWVRQAPGQGLEWMGVTTPGGGTINYAQKFQGRVTITADESTSTAYMELSSLRSEDTAVYYCARSRWDPLYYYALEYWGQGTTVTVSSASTKGPSVFPLAPCSRSTSESTAALGCLVKDYFPEPVTVSWNSGALTSGVHTFPAVLQSSGLYSLSSVVTVPSSNFGTQTYTCNVDHKPSNTKVDKTVERKCCVECPPCPAPPVAGPSVFLFPPKPKDTLMISRTPEVTCVVVDVSHEDPEVQFNWYVDGVEVHNAKTKPREEQFNSTFRVVSVLTVVHQDWLNGKEYKCKVSNKGLPAPIEKTISKTKGQPREPQVYTLPPSREEMTKNQVSLTCLVKGFYPSDIAVEWESNGQPENNYKTTPPMLDSDGSFFLYSKLTVDKSRWQQGNVFSCSVMHEALHNHYTQKSLSLSPGK
light: DIVMTQSPDSLAVSLGERATINCRASESVDNYGIPFMNWYQQKPGQPPKLLIYAASNRGSGVPDRFSGSGSGTDFTLTISSLQAEDVAVYYCQQSEEVPLTFGQGTKLEIKRTVAAPSVFIFPPSDEQLKSGTASVVCLLNNFYPREAKVQWKVDNALQSGNSQESVTEQDSKDSTYSLSSTLTLSKADYEKHKVYACEVTHQGLSSPVTKSFNRGEC
As to B1, in the assay with human IL-6 [1], the “IC50 fold less than that of EBI-029, HEK-Blue IL6 cells” value was more than 50 fold; the “IC90 fold less than that of EBI-029, HEK-Blue IL6 cells” value is approximately 4000 fold; the “fold decrease in IC50 against EBI-029, HEK-Blue IL6 cells, 20 pM IL-6” value is approximately 50 fold; the “fold decrease in IC90 against EBI-029, HEK-Blue IL6 cells, 20 pM IL-6” value was more than 100 fold.

B2: EBI-031 (antibody, human IgG2, kappa)
heavy: QVQLVQSGAEVKKPGSSVKVSCKASGYVLPNYLIEWVRQAPGQGLEWMGVTTPGGGTINYAQKFQGRVTITADESTSTAYMELSSLRSEDTAVYYCARSRWDPLYYYALEYWGQGTTVTVSSASTKGPSVFPLAPCSRSTSESTAALGCLVKDYFPEPVTVSWNSGALTSGVHTFPAVLQSSGLYSLSSVVTVPSSNFGTQTYTCNVDHKPSNTKVDKTVERKCCVECPPCPAPPVAGPSVFLFPPKPKDTLMISRTPEVTCVVVDVSHEDPEVQFNWYVDGVEVHNAKTKPREEQFNSTFRVVSVLTVVAQDWLNGKEYKCKVSNKGLPAPIEKTISKTKGQPREPQVYTLPPSREEMTKNQVSLTCLVKGFYPSDIAVEWESNGQPENNYKTTPPMLDSDGSFFLYSKLTVDKSRWQQGNVFSCSVMHEALHNHYTQKSLSLSPGK
light: DIVMTQSPDSLAVSLGERATINCRASESVDNYGIPFMNWYQQKPGQPPKLLIYAASNRGSGVPDRFSGSGSGTDFTLTISSLQAEDVAVYYCQQSEEVPLTFGQGTKLEIKRTVAAPSVFIFPPSDEQLKSGTASVVCLLNNFYPREAKVQWKVDNALQSGNSQESVTEQDSKDSTYSLSSTLTLSKADYEKHKVYACEVTHQGLSSPVTKSFNRGEC
Regarding B2, in the assay with human IL-6 [1], the “IC50, cis-signaling, HEK-Blue IL6 cells, 20 pM free IL-6” value is 14.2 pM; the “IC50 fold less than that of EBI-029, HEK-Blue IL6 cells” value is more than 75 fold; the “IC90 fold less than that of EBI-029, HEK-Blue IL6 cells” value is approximately 350 fold; the “fold decrease in IC50 against EBI-029, HEK-Blue IL6 cells, 20 pM IL-6” value is approximately 50 fold. Besides, in the assay with human IL-6 [1], the “fold decrease in IC90 against EBI-029, HEK-Blue IL6 cells, 20 pM IL-6” value is more than 100 fold and the “fold greater potency than tocilizumab, cis-signaling, HEK-Blue IL6 cells” value is more than 900 fold. Further, in the assay with hyper IL-6, the “IC50, trans-signaling, HEK-Blue IL6 cells, 200 pM hyper IL-6” value is 32 pM and the “fold more potent than tocilizumab, cellular assays” value was more than 900 fold.

B3: Tocilizumab (antibody, human IgG1, kappa, V domains shown)
VH: QVQLQESGPGLVRPSQTLSLTCTVSGYSITSDHAWSWVRQPPGRGLEWIGYISYSGITTYNPSLKSRVTMLRDTSKNQFSLRLSSVTAADTAVYYCARSLARTTAMDYWGQGSLVTVSS
VL: DIQMTQSPSSLSASVGDRVTITCRASQDISSYLNWYQQKPGKAPKLLIYYTSRLHSGVPSRFSGSGSGTDFTFTISSLQPEDIATYYCQQGNTLPYTFGQGTKVEIKR
With B3, the “IC50, cis-signaling, HEK-Blue IL6 cells, 20 pM free IL-6” value in assay [2] was 12.9 nM.

B4: EBI-029 Fab I51T/S55G (Fab, V domains shown)
VH: QVQLVQSGAEVKKPGSSVKVSCKASGYALSNYLIEWVRQAPGQGLEWMGVTTPGGGTINYAQKFQGRVTITADESTSTAYMELSSLRSEDTAVYYCARSRWDPLYYYALEYWGQGTTVTVSS
VL: DIVMTQSPDSLAVSLGERATINCRASESVDNYGIPFMNWYQQKPGQPPKLLIYAASNRGSGVPDRFSGSGSGTDFTLTISSLQAEDVAVYYCQQSEEVPLTFGQGTKLEIKR
notes: The mutations were introduced into the wild-type EBI-029 Fab; also called 151T/S55G
Take B4: the binding result in the assay with human IL-6 [3] is “binds”.

B5: h64 IgG (antibody, V domains shown)
VH: QVQLVQSGAEVKKPGSSVKVSCKASGYAFSNYLIEWVRQAPGQGLEWMGVITPGSGTINYAQKFQGRVTITADESTSTAYMELSSLRSEDTAVYYCARSRWDPLYYYALEYWGQGTTVTVSS
VL: DIVMTQSPDSLAVSLGERATINCRASESVDNYGISFMNWYQQKPGQPPKLLIYAASNQGSGVPDRFSGSGSGTDFTLTISSLQAEDVAVYYCQQSKEVPLTFGQGTKLEIK
notes: Expressed as inline fusions with the human IgG1 constant domains; also called original h64 antibody; the original humanized molecule
By Kd is commonly meant a measure of binding affinity in units of concentration. Low readings indicate tighter binding, high ones weaker binding. Turning to B5, binding with human IL-6 [4] was put at a Kd of 0.343 nM.

B6: EBI-029 Fab A28V/I51T/S55G (Fab, V domains shown)
VH: QVQLVQSGAEVKKPGSSVKVSCKASGYVLSNYLIEWVRQAPGQGLEWMGVTTPGGGTINYAQKFQGRVTITADESTSTAYMELSSLRSEDTAVYYCARSRWDPLYYYALEYWGQGTTVTVSS
VL: DIVMTQSPDSLAVSLGERATINCRASESVDNYGIPFMNWYQQKPGQPPKLLIYAASNRGSGVPDRFSGSGSGTDFTLTISSLQAEDVAVYYCQQSEEVPLTFGQGTKLEIKR
B6: the binding result in the assay with human IL-6 [3] is listed as “binds”.

B7: EBI-029 Fab S30P/I51T/S55G (Fab, V domains shown)
VH: QVQLVQSGAEVKKPGSSVKVSCKASGYALPNYLIEWVRQAPGQGLEWMGVTTPGGGTINYAQKFQGRVTITADESTSTAYMELSSLRSEDTAVYYCARSRWDPLYYYALEYWGQGTTVTVSS
VL: DIVMTQSPDSLAVSLGERATINCRASESVDNYGIPFMNWYQQKPGQPPKLLIYAASNRGSGVPDRFSGSGSGTDFTLTISSLQAEDVAVYYCQQSEEVPLTFGQGTKLEIKR
Take B7: in the assay with human IL-6 [3], the binding result is listed as “binds”.

B8: murine 64 antibody (antibody, V domains shown)
VH: QVQLQQSGAELVRPGTSVKVSCKASGYAFSNYLIEWVKQRPGQGLEWIGVITPGSGTINYNEKFKGKAVLTADKSSSTVYMQLSSLTSDDSAVYFCAKSRWDPLYYYALEYWGQGTSVTVSS
VL: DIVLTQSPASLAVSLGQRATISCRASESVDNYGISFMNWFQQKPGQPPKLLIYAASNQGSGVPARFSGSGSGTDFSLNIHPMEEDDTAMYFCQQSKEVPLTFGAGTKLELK
notes: Murine monoclonal from a hybridoma; also called Hybridoma 64; m64
For B8, the binding result in the assay with human IL-6 [5] is on record as “binds”.
